Experimental findings from US20150197571A1 are described below.

Assay [1] deals with human PD-L1 expressed on 300.19 cells (human) (UniProt Q9NZQ7). The assay is described as follows: FACS on 300.19 cells expressing human PD-L1.
Assay [2] has the same target. The assay is described as follows: FACS blockade, B7-1-hIgG on 300-hPD-L1 cells, mAb 5 ug/ml.
Assay [3] shares this target. The assay is described as follows: FACS competition, PD-1-Ig on hPD-L1 300 cells, mAb 90 ug/ml.
The target is the same in assay [4]. Put plainly: FACS blockade, PD-1-hIgG1 on PD-L1 300.19 cells.
Assay [5] shares this target. Put plainly: FACS blockade, B7-1-hIgG on 300-hPD-L1 cells, mAb 0.625 ug/ml.
Assay [6] deals with T1, human PD-L2 expressed on 300.19 cells (human) (UniProt Q9BQ51).
T1 sequence: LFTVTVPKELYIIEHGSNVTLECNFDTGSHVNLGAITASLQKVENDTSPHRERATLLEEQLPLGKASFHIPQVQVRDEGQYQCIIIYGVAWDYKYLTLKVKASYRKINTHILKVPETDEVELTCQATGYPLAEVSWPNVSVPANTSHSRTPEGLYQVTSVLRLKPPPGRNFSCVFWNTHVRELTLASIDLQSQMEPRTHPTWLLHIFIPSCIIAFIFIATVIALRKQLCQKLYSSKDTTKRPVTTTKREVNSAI
The assay is described as follows: FACS competition, PD-1-Ig on hPD-L2 300 cells, mAb 1.1 ug/ml.

For assay [7], the target named is human PD-L1 expressed on 300.19 cells (human) (UniProt Q9NZQ7). Put plainly: FACS blockade, B7-1-hIgG on 300-hPD-L1 cells, mAb '0.0.39' [sic] ug/ml.
For assay [8], the target named is T1, human PD-L2 expressed on 300.19 cells (human). The assay is described as follows: FACS on hPD-L2 300 cells, antibody 0.1 ug/ml.
For assay [9], the target named is human PD-L1 expressed on 300.19 cells (human) (UniProt Q9NZQ7). Put plainly: FACS blockade, B7-1-hIgG on 300-hPD-L1 cells, mAb 0.0098 ug/ml.
The target is the same in assay [10]. The assay is described as follows: FACS blockade, B7-1-hIgG on 300-hPD-L1 cells, mAb 0.0195 ug/ml.
The target in assay [11] is T1, human PD-L2 expressed on 300.19 cells (human). Put plainly: FACS competition, PD-1-Ig on hPD-L2 300 cells, mAb 0.12 ug/ml.
Assay [12] deals with human PD-L1 expressed on 300.19 cells (human) (UniProt Q9NZQ7). Put plainly: FACS blockade, B7-1-hIgG on 300-hPD-L1 cells, mAb 0.313 ug/ml.
Assay [13] has the same target. The assay is described as follows: FACS competition, PD-1-Ig on hPD-L1 300 cells, mAb 3.3 ug/ml.
Assay [14] concerns the target T1, human PD-L2 expressed on 300.19 cells (human). The assay is described as follows: FACS on 300.19 cells expressing human PD-L2.
Assay [15] deals with human PD-L1 expressed on 300.19 cells (human) (UniProt Q9NZQ7). Put plainly: FACS blockade, B7-1-hIgG on 300-hPD-L1 cells, mAb 0.156 ug/ml.
Assay [16] shares this target. The assay is described as follows: FACS blockade, B7-1-hIgG on 300-hPD-L1 cells, mAb 0.078 ug/ml.
In assay [17] the target is T1, human PD-L2 expressed on 300.19 cells (human). The assay is described as follows: FACS on hPD-L2 300 cells, antibody 10 ug/ml.
Assay [18] concerns the target human PD-L1 expressed on 300.19 cells (human) (UniProt Q9NZQ7). Put plainly: FACS blockade, B7-1-hIgG on 300-hPD-L1 cells, mAb 2.5 ug/ml.
In assay [19] the target is T1, human PD-L2 expressed on 300.19 cells (human). The assay is described as follows: FACS blockade, PD-1-hIgG1 on PD-L2 300.19 cells.
The target of assay [20] is human PD-L1 expressed on 300.19 cells (human) (UniProt Q9NZQ7). The assay is described as follows: FACS on hPD-L1 300 cells, antibody 1 ug/ml.
Assay [21] has as its target T1, human PD-L2 expressed on 300.19 cells (human). Put plainly: FACS competition, PD-1-Ig on hPD-L2 300 cells, mAb 3.3 ug/ml.
Assay [22] deals with human PD-L1 expressed on 300.19 cells (human) (UniProt Q9NZQ7). Put plainly: FACS competition, PD-1-Ig on hPD-L1 300 cells, mAb 0.37 ug/ml.
The target is the same in assay [23]. The assay is described as follows: FACS competition, PD-1-Ig on hPD-L1 300 cells, mAb 0.04 ug/ml.
Assay [24] addresses T1, human PD-L2 expressed on 300.19 cells (human). The assay is described as follows: FACS competition, PD-1-Ig on hPD-L2 300 cells, mAb 10 ug/ml.
Assay [25] has as its target human PD-L1 expressed on 300.19 cells (human) (UniProt Q9NZQ7). Put plainly: FACS competition, PD-1-Ig on hPD-L1 300 cells, mAb 1.1 ug/ml.
The target is the same in assay [26]. Put plainly: FACS on hPD-L1 300 cells, antibody 10 ug/ml.
The target is the same in assay [27]. The assay is described as follows: FACS blockade, B7-1-hIgG on 300-hPD-L1 cells, mAb 1.25 ug/ml.
The target in assay [28] is T1, human PD-L2 expressed on 300.19 cells (human). The assay is described as follows: FACS competition, PD-1-Ig on hPD-L2 300 cells, mAb 0.04 ug/ml.
Assay [29] has the same target. The assay is described as follows: FACS on hPD-L2 300 cells, antibody 1 ug/ml.
Assay [30] has the same target. Put plainly: FACS competition, PD-1-Ig on hPD-L2 300 cells, mAb 90 ug/ml.
Assay [31] addresses human PD-L1 expressed on 300.19 cells (human) (UniProt Q9NZQ7). The assay is described as follows: FACS on hPD-L1 300 cells, antibody 0.1 ug/ml.
Assay [32] has as its target T1, human PD-L2 expressed on 300.19 cells (human). The assay is described as follows: FACS competition, PD-1-Ig on hPD-L2 300 cells, mAb 0.37 ug/ml.
Assay [33] has as its target human PD-L1 expressed on 300.19 cells (human) (UniProt Q9NZQ7). Put plainly: FACS blockade, B7-1-hIgG on 300-hPD-L1 cells, mAb 10 ug/ml.
Assay [34] shares this target. Put plainly: FACS blockade, B7-1-hIgG on 300-hPD-L1 cells, mAb 20 ug/ml.
Assay [35] shares this target. Put plainly: FACS competition, PD-1-Ig on hPD-L1 300 cells, mAb 10 ug/ml.
In assay [36] the target is T1, human PD-L2 expressed on 300.19 cells (human). Put plainly: FACS competition, PD-1-Ig on hPD-L2 300 cells, mAb 30 ug/ml.
The target is the same in assay [37]. Put plainly: FACS on hPD-L2 300 cells, supernatant 1 to 10.
For assay [38] the target is unchanged. The assay is described as follows: FACS on hPD-L2 300 cells, supernatant undiluted.
Assay [39] has the same target. The assay is described as follows: FACS, hybridoma supernatant on 300.19 cells expressing human PD-L2. (In general: Flow cytometry measures light scatter and fluorescence of single cells or particles in a stream.)
The target is the same in assay [40]. The assay is described as follows: FACS on hPD-L2 300 cells, supernatant 1 to 100.

Chain of UniProt Q9NZQ7 (Q9NZQ7 19-290): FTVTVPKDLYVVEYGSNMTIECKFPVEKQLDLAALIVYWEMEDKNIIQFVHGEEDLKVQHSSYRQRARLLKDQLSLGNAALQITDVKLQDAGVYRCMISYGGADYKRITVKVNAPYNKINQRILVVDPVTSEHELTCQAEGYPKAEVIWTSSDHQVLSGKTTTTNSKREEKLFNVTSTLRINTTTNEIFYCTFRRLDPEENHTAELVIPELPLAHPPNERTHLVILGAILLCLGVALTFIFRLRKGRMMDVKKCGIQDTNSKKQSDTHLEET

For MOPC31C isotype control antibody, the figures for the MFI in [1] and in assay [14] were 45 and 19, respectively. Also, the Mean of PE Signal (bound B7-1-Ig) was found to be 3580 in assay [2]; 3710 in [5]; 3990 in assay [7]; 4410 in assay [9]; 4760 in assay [10]; 3960 in assay [12]. Moreover, the Mean of PE Signal (bound B7-1-Ig) in assay [15] is 3720; in assay [16], 4320; in assay [18], 3880; in [27] it was 3490; in [33], 3550; in assay [34] it was 3590. The Mean of PE Signal (bound PD-1-Ig) is 11800 in [3]; 58400 in assay [6]; 59100 in assay [11]; 11900 in [13]; 52600 in assay [21]; 13500 in [22]. The Mean of PE Signal (bound PD-1-Ig) was 13300 in [23]; 52500 in [24]; 13600 in [25]; 60800 in assay [28]; 53500 in assay [30]; 60600 in [32]. Further, the Mean of PE Signal (bound PD-1-Ig) in assay [35] was found to be 12600; in assay [36], 54200. The MFI of bound PD-1-Ig (inversely proportional to blockage) in assay [4] came out at 26700; in [19], 19200. In addition, the Mean of PE signal was found to be 149 in assay [8]; 173 in [17]; 183 in assay [20]; 263 in [26]; 164 in assay [29]; 250 in assay [31].
Regarding C1.18 mIgG2a control (antibody), the Mean of PE Signal (bound B7-1-Ig) in assay [7] came out at 4280; in assay [10], 3500; in assay [16], 397; in assay [34], 4540.

B1: 4H1 monoclonal antibody (antibody, V domains shown)
VH: DVQLQESGPGLVKPSQSLSLTCTVTDYSITSDYAWTWIRQFPGNKLEWMGYITYRGTTRYNPSLTSRISFTRDTSKNQLFLQLNSVTTEDTGTYCCARSMITTGYYAMDYWGQGTSVTVSS
VL: DIVMTQSHKFMSTSVGDRVSISCKASQDVGISVAWYQQKPGQSPKLLIYWASTRHTGVPVRFTGSGSGTDFTLTISNVQSEDLADYFCQQYSSYPPTFGAGTKLELK
As to B1, the Mean of PE Signal (bound PD-1-Ig) in [6] worked out at 54600; in [11], 52500; in assay [21] it was 56000; in assay [24] it was 56800; in assay [28], 54700; in assay [30] it was 52200. The Mean of PE Signal (bound PD-1-Ig) in assay [32] stood at 52400; in [36], 56100. For the same molecule, the MFI of bound PD-1-Ig (inversely proportional to blockage) in assay [19] was determined as 21100. The Mean of PE signal in assay [37] was found to be 757; in assay [38], 840; in [40] it was 672. In addition, the MFI in assay [39] turned out to be 93.
